Measurements from US20180127505A1, “HUMANIZED ANTI-AXL ANTIBODIES AND THEIR CONJUGATES” (MEDIMMUNE LIMITED, priority 2015, published 2018).

B1: Ab2-ConjE (Ab2 conjugated to the ConjE PBD payload, DAR 2.4) (other)
VH: MGFKMESQFQVFVFVFLWLSGVDGQVQLVESGGGVVQPGRSLRLSCAASGFTFSSYGMSVRQAPGKGLEWVATISSGGSYTYYPDSVKGRFTISRDNSKNTLYLQMNSLRAEDTAVYYCARHPIYYTYDDTMDYWGQGTTVTVSS
VL: EIVLTQSPATLSLSPGERATLSCSASSSVSSGNFHWYQQKPGLAPRLLIYRTSNLASGIPDRFSGSGSGTDFTLTISRLEPEDFAVYYCQQWSGYPWTFGPGTKVDIK
modifications: ConjE PBD drug-linker on cysteine thiol(s) of the antibody, sites not stated; DAR 2.4
B2: Ab4-ConjE (Ab4 conjugated to the ConjE PBD payload, DAR 2.6) (other)
VH: EVQLVESGGGLVQPGGSLRLSCAASGFTFSSYGMSWVRQAPGKGLEWVATISSGGSYTYYPDSVKGRFTISRDNAKNSLYLQMNSLRAEDTAVYYCARHPIYYTYDDTMDYWGQGTLVTVSS
VL: EIVLTQSPATLSLSPGERATLSCSASSSVSSGNFHWYQQKPGLAPRLLIYRTSNLASGIPDRFSGSGSGTDFTLTISRLEPEDFAVYYCQQWSGYPWTFGPGTKVDIK
modifications: ConjE PBD drug-linker on cysteine thiol(s) of the antibody, sites not stated; DAR 2.6
B3: Ab5-ConjE (Ab5 conjugated to the ConjE PBD payload, DAR 2.3) (other)
VH: EVQLVESGGGLVQPGGSLRLSCAASGFTFSSYGMSWVRQAPGKGLEWVATISSGGSYTYYPDSVKGRFTISRDNAKNSLYLQMNSLRAEDTAVYYCARHPIYYTYDDTMDYWGQGTLVTVSS
VL: EIVLTQSPGTLSLSPGERATLSCSASSSVSSGNFHWYQQKPGLAPRLLIYRTSNLASGIPARFSGSGSGTDFTLTISSLEPEDFAVYYCQQWSGYPWTFGGGTKLEIK
modifications: ConjE PBD drug-linker on cysteine thiol(s) of the antibody, sites not stated; DAR 2.3
B4: Ab4, anti-AXL antibody comprising VH SEQ ID NO. 3 and VL SEQ ID NO. 5 and a constant region derived from one or more human antibodies (antibody, V domains shown)
VH: EVQLVESGGGLVQPGGSLRLSCAASGFTFSSYGMSWVRQAPGKGLEWVATISSGGSYTYYPDSVKGRFTISRDNAKNSLYLQMNSLRAEDTAVYYCARHPIYYTYDDTMDYWGQGTLVTVSS
VL: EIVLTQSPATLSLSPGERATLSCSASSSVSSGNFHWYQQKPGLAPRLLIYRTSNLASGIPDRFSGSGSGTDFTLTISRLEPEDFAVYYCQQWSGYPWTFGPGTKVDIK
B5: Ab3-ConjE (Ab3 conjugated to the ConjE PBD payload, DAR 2.2) (other)
VH: MGFKMESQFQVFVFVFLWLSGVDGQVQLVESGGGVVQPGRSLRLSCAASGFTFSSYGMSVRQAPGKGLEWVATISSGGSYTYYPDSVKGRFTISRDNSKNTLYLQMNSLRAEDTAVYYCARHPIYYTYDDTMDYWGQGTTVTVSS
VL: EIVLTQSPGTLSLSPGERATLSCSASSSVSSGNFHWYQQKPGLAPRLLIYRTSNLASGIPARFSGSGSGTDFTLTISSLEPEDFAVYYCQQWSGYPWTFGGGTKLEIK
modifications: ConjE PBD drug-linker on cysteine thiol(s) of the antibody, sites not stated; DAR 2.2
B6: Ab5, anti-AXL antibody comprising VH SEQ ID NO. 3 and VL SEQ ID NO. 7 and a constant region derived from one or more human antibodies (antibody, V domains shown)
VH: EVQLVESGGGLVQPGGSLRLSCAASGFTFSSYGMSWVRQAPGKGLEWVATISSGGSYTYYPDSVKGRFTISRDNAKNSLYLQMNSLRAEDTAVYYCARHPIYYTYDDTMDYWGQGTLVTVSS
VL: EIVLTQSPGTLSLSPGERATLSCSASSSVSSGNFHWYQQKPGLAPRLLIYRTSNLASGIPARFSGSGSGTDFTLTISSLEPEDFAVYYCQQWSGYPWTFGGGTKLEIK
B7: Ab1-ConjE (Ab1 conjugated to the ConjE PBD payload, DAR 2.2) (other)
VH: EVQLVESGGDLVKPGGSLKLSCAASGFTFSSYGMSWVRQTPDKRLEWVATISSGGSYTYYPDSVKGRFTISRDNAKNTLYLQMSSLKSEDTAMYYCARHPIYYTYDDTMDYWGQGTSVTVSS
VL: ENVLTQSPAIMAASPGEKVTMTCSASSSVSSGNFHWYQQKPGTSPKLWIYRTSNLASGVPARFSGSGSGTSYSLTISSMEAEDAATYYCQQWSGYPWTFGGGTKLEIK
modifications: ConjE PBD drug-linker on cysteine thiol(s) of the antibody, sites not stated; DAR 2.2
B8: Ab1, anti-AXL antibody comprising the murine 1H12 VH (SEQ ID NO. 1) and VL (SEQ ID NO. 4) and a constant region derived from one or more human antibodies (antibody, V domains shown)
VH: EVQLVESGGDLVKPGGSLKLSCAASGFTFSSYGMSWVRQTPDKRLEWVATISSGGSYTYYPDSVKGRFTISRDNAKNTLYLQMSSLKSEDTAMYYCARHPIYYTYDDTMDYWGQGTSVTVSS
VL: ENVLTQSPAIMAASPGEKVTMTCSASSSVSSGNFHWYQQKPGTSPKLWIYRTSNLASGVPARFSGSGSGTSYSLTISSMEAEDAATYYCQQWSGYPWTFGGGTKLEIK
notes: also called Abl; chimeric 1H12

How the values were obtained:
AXL on MDA-MB-231 cells = molecular target: T1, AXL on MDA-MB-231 cells (UniProt P30530 26-894, limits assumed); experiment: cell-based or functional assay
T1 sequence (looked up): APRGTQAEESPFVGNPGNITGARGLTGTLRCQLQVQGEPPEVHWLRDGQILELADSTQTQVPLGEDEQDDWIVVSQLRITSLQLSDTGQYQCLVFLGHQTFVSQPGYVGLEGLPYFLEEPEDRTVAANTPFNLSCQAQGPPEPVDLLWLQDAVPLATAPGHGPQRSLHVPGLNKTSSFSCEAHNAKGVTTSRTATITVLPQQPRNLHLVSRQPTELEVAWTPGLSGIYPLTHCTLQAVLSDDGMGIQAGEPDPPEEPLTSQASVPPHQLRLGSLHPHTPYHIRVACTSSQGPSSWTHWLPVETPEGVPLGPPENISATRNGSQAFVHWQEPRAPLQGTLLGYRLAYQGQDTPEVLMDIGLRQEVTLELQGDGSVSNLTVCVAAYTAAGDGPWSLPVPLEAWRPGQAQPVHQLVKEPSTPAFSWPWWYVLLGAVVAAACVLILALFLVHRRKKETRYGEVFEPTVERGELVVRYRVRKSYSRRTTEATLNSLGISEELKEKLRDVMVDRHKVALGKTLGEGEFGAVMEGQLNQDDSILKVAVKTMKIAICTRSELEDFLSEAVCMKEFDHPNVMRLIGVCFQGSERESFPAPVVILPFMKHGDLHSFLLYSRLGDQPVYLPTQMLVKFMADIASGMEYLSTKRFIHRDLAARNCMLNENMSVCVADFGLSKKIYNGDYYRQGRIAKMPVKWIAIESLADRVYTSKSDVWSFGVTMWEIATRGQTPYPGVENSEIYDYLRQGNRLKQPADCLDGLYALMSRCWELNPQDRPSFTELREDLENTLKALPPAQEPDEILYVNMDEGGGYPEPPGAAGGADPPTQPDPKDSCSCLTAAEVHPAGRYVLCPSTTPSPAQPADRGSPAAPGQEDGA

[1] = molecular target: T2, Human AXL-Strep-His (produced by Evitria AG in transiently transfected CHO cells) (human, UniProt P30530 26-451, limits assumed); experiment: human AXL ELISA (Protocol 4), untreated antibody of the accelerated stability analysis, OD 450nm against Log10[IgG (µg/mL)]
T2 construct: also called Axl-Strep-His antigen; human AxI-Strep-His; not shown: Strep and His tags
T2 sequence: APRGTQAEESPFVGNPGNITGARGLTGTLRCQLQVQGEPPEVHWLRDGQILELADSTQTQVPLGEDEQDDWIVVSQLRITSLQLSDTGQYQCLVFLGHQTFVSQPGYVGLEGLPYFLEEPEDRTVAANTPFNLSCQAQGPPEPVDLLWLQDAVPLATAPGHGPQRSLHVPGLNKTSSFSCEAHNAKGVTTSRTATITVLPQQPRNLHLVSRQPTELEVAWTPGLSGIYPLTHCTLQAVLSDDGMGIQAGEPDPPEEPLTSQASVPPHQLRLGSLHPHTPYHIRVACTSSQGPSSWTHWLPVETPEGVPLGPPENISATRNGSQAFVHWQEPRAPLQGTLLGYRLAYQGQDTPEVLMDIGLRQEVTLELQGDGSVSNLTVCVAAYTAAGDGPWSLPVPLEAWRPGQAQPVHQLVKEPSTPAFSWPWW

[2] = molecular target: T2, Human AXL-Strep-His (produced by …); experiment: ELISA on plate-coated human AXL-Strep-His (Protocol 4), OD 450nm against Log10[IgG (µg/mL)] [A. Human Axl]
Cynomolgus monkey AXL = molecular target: T3, Cynomolgus monkey AXL (Macaca fascicularis, UniProt A0A2K5WXE0); experiment: ELISA on cynomolgus monkey AXL (coating antigen not described in the text), OD 450nm against Log10[IgG (µg/mL)] [B. Cynomolgus monkey AXL]
T3 construct: form not described
T3 sequence (antigen): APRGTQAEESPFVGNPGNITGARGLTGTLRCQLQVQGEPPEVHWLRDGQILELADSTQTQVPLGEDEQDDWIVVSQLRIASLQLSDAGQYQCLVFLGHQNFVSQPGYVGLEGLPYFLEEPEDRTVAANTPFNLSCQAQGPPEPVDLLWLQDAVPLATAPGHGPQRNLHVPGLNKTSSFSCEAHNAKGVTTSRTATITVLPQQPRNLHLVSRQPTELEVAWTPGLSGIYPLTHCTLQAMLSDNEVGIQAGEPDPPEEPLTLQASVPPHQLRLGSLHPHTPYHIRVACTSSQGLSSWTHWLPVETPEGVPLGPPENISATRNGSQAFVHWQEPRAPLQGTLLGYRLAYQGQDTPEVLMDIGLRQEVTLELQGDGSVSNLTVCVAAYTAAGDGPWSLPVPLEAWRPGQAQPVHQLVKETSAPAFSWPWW

[3] = molecular target: T2, Human AXL-Strep-His (produced by …); experiment: SPR (Biacore T200), AXL-Strep-His amine-coupled to CM5 chip, antibody as analyte, bivalent model
[4] = molecular target: T2, Human AXL-Strep-His (produced by …); experiment: SPR (Biacore T200), AXL-Strep-His amine-coupled to CM5 chip, antibody as analyte, bivalent model; column head KD1
[5] = molecular target: T4, Human Axl-Fc chimera (R&D Systems #154-AL) (human, UniProt P30530 26-451); experiment: SPR (Biacore T200), AXL-Fc amine-coupled to CM5 chip, antibody as analyte, bivalent model
T4 construct: Bought reagent; also called Axl-Fc antigen; AXL-Fc chimera antigen; Fc part of the bought chimera not given
T4 sequence: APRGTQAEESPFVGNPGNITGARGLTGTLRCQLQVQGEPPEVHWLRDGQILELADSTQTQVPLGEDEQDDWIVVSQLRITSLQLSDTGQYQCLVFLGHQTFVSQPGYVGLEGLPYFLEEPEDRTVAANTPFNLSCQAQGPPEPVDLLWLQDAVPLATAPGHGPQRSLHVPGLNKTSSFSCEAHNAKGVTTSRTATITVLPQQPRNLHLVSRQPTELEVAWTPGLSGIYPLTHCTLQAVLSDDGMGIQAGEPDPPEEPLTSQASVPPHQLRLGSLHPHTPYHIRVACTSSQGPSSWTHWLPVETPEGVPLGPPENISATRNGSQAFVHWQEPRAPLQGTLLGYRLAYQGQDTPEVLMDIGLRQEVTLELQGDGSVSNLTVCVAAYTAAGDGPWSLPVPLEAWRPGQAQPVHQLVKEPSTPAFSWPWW

[6] = molecular target: T2, Human AXL-Strep-His (produced by …); experiment: SPR (Biacore T200), AXL-Strep-His amine-coupled to CM5 chip, antibody as analyte, heterogeneous ligand model; column head KD1; heterogeneous ligand model; AXL-Strep-His antigen
[7] = molecular target: T2, Human AXL-Strep-His (produced by …); experiment: SPR (Biacore T200), AXL-Strep-His amine-coupled to CM5 chip, antibody as analyte, heterogeneous ligand model

Row | Binder | GI50 (pg/ml), MDA-MB-231 cytotoxicity, MTS assay, 5 days (AXL on MDA-MB-231 cells) [pg/mL] | EC50 (read off the curve) [1] [ng/mL] | EC50 (read off the curve) (Cynomolgus monkey AXL) [ng/mL] | Kd [5] [nM] | koff [5] [s⁻¹] | kon [5] [M⁻¹ s⁻¹] | further results
1 | B1 | 73 |  |  |  |  |  | 
2 | B2 | 64.2 |  |  |  |  |  | 
3 | B3 | 44 |  |  |  |  |  | 
4 | B4 |  | ~20 | ~20 | 1.37 | 0.000396 | 290000 | EC50 (read off the curve) [2]: ~30 ng/mL; koff [3]: 0.00059 s⁻¹; kon [3]: 9760 M⁻¹ s⁻¹; Kd [4]: 60.4 nM
5 | B5 | 27.6 |  |  |  |  |  | 
6 | B6 |  | ~20 | ~30 | 7.69 | 0.000159 | 20600 | koff [3]: 0.000435 s⁻¹; kon [3]: 18900 M⁻¹ s⁻¹; Kd [4]: 23 nM
7 | B7 | 6.95 |  |  |  |  |  | 
8 | B8 |  | ~10 | ~20 | 4.6 | 0.000142 | 30900 | EC50 (read off the curve) [2]: ~30 ng/mL; Kd [6]: 40.7 nM; koff [7]: 0.000533 s⁻¹; kon [7]: 13100 M⁻¹ s⁻¹
